From the RNAGym collection of RNA variant scans (doi:10.1021/acssynbio.7b00057)

B1: Pistol ribozyme (parent)
chain: GGGUCGUUGUUCCAUAAUCGCGUGGAUAUGGCACGCAAGUUUCUACCGGGCACCGUAAAUGUCCGACUGGAGCCGUUCGGGCGGCUAUAAACAGACCUCAGGCCCGAAGCGUGGCGGCACCUGCCGCCGGUGGUAAAAAAGAUCGGAAGAGCACACGUCU

Variants of: B1
Experiment: aptazyme ON/OFF ratio, guanine; higher = stronger switching; co-transcriptional cleavage with and without guanine

Variant | aptazyme ON/OFF ratio
U8G G9U U10G C12G | 1.02
U8G G9U U10G C12U | 1.02
U8G G9C U11A C12A C13G | 1.05
U8G G9C U11A C12A C13A | 1.07
U8G G9C U11A C12A C13U | 1.06
U8G G9U C12U C13A | 1.22
U8G G9U C12U C13U | 1.14
U8G G9U C12U C13G | 1.28
U8G G9U U10A U11G C12U C13U | 1.13
U8G G9U U10A U11G C12U C13A | 1.05
U8G G9U U10A U11G C12U C13G | 1.1
U8G G9C U10G U11G C12U C13G | 1.14
U8G G9C U10G U11G C12U C13U | 1.28
U8G G9C U10G U11G C12U C13A | 1.16
U8G G9C U11G C13A | 1.05
U8G G9C U11G C13G | 1.04
U8G G9C U11G C13U | 1.06
U8G G9U U10C U11G C12A C13U | 1.12
U8G G9U U10C U11G C12A C13G | 1.11
U8G G9U U10C U11G C12A C13A | 1.14
U8G G9U U10C C12A C13G | 1.15

Variant | aptazyme ON/OFF ratio
U8G G9U U10C C12A C13U | 1.15
U8G G9U U10C C12A C13A | 1.2
U8G G9U U10A C13U | 1.09
U8G G9U U10A C13A | 1.1
U8G G9U U10A C13G | 1.06
U8G G9U U10G U11A C12G C13G | 1.17
U8G G9U U10G U11A C12G C13A | 1.05
U8G G9U U10G U11A C12G C13U | 1.04
U8G G9U C13A | 1.39
U8G G9U C13U | 1.41
U8G G9U C13G | 1.1
U8G G9U U11A C12U C13U | 1.35
U8G G9U U11A C12U C13G | 1.22
U8G G9U U11A C12U C13A | 1.19
U8G G9U U10G U11G C12U C13G | 1.09
U8G G9U U10G U11G C12U C13A | 1.09
U8G G9U U10G U11G C12U C13U | 1.18
U8G G9U U11G C12U C13U | 1.16
U8G G9U U11G C12U C13G | 1.1
U8G G9U U11G C12U C13A | 1.13
U8G G9U U10C C12U C13A | 1.11

Variant | aptazyme ON/OFF ratio
U8G G9U U10C C12U C13G | 1.08
U8G G9U U10C C12U C13U | 1.2
U8G G9U U10C C13U | 1.03
U8G G9U U10C C13G | 1.03
U8G G9U U10C C13A | 1.04
U8G G9C U11A C12U C13A | 1.03
U8G G9C U11A C12U C13G | 1.06
U8G G9C U11A C12U C13U | 1.1
U8G G9U U11G C13A | 1.06
U8G G9U U11G C13G | 1.04
U8G G9U U11G C13U | 1.05
U8G G9U U10C U11A C12G | 1.12
U8G G9U U10C U11A C12U | 1.11
U8G G9U U10C U11A C12A | 1.14
U8G G9U U10A U11C C12U C13G | 1.05
U8G G9U U10A U11C C12U C13A | 1.08
U8G G9U U10A U11C C12U C13U | 1.05
U8G G9U U10G | 1.07
U8G G9U U10C | 1.51
U8G G9U U10A | 1.2
U8G G9U U11A C13U | 1.25

Variant | aptazyme ON/OFF ratio
U8G G9U U11A C13G | 1.06
U8G G9U U11A C13A | 1.33
U8G G9C U10G U11G | 1.2
U8G G9U U10C C12G C13A | 1.26
U8G G9U U10C C12G C13U | 1.36
U8G G9U U10C C12G C13G | 1.25
U8G G9U U11A C12G C13G | 1.23
U8G G9U U11A C12G C13U | 1.18
U8G G9U U11A C12G C13A | 1.13
U8G G9C U11G C12A C13U | 1.08
U8G G9C U11G C12A C13G | 1.05
U8G G9C U11G C12A C13A | 1.08
U8G G9U U10G U11C | 1.02
U8G G9U U10G U11A | 1.09
U8G G9U U10G U11G | 1.07
U8G G9C U10G U11C C12U C13G | 1.02
U8G G9C U10G U11C C12U C13U | 1.03
U8G G9U U10A C12U C13U | 1.17
U8G G9U U10A C12U C13A | 1.2
U8G G9U U10A C12U C13G | 1.19
U8G G9C U11G C12G C13U | 1.11
